Positions count from the first letter of the chain named.
T1: murine Fibroblast Activation Protein (FAP), expressed in HEK293 cells (mouse, UniProt P97321 1-761)
T1 construct: whole, on cells; Used on transfected HEK293 cells (flow cytometry) and as lysate of those cells coated on plates (ELISA); also called mouse FAP; muFAP
T1 sequence (looked up): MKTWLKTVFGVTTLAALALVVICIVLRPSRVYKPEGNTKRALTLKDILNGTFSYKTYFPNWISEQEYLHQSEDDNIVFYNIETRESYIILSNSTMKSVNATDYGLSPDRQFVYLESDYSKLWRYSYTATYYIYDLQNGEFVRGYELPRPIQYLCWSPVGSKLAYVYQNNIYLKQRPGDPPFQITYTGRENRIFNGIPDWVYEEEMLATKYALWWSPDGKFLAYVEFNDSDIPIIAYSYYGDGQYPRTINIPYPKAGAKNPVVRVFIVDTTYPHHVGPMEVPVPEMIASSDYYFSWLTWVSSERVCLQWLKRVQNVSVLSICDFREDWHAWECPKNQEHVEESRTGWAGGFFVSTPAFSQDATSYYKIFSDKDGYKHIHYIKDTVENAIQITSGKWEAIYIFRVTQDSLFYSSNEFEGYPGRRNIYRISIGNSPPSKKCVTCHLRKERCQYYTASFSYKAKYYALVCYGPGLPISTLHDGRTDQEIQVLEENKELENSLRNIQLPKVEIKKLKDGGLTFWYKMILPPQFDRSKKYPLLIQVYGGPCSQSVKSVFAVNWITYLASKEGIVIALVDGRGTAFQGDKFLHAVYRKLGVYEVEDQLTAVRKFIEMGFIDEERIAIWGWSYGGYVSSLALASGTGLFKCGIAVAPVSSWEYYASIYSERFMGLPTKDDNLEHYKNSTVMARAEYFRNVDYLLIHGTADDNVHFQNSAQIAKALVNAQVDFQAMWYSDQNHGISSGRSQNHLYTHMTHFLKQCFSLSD

T2: huFAP coated on a surface plasmon resonance chip (human, UniProt Q12884 26-760, limits assumed)
T2 construct: also called human FAP
T2 sequence (looked up): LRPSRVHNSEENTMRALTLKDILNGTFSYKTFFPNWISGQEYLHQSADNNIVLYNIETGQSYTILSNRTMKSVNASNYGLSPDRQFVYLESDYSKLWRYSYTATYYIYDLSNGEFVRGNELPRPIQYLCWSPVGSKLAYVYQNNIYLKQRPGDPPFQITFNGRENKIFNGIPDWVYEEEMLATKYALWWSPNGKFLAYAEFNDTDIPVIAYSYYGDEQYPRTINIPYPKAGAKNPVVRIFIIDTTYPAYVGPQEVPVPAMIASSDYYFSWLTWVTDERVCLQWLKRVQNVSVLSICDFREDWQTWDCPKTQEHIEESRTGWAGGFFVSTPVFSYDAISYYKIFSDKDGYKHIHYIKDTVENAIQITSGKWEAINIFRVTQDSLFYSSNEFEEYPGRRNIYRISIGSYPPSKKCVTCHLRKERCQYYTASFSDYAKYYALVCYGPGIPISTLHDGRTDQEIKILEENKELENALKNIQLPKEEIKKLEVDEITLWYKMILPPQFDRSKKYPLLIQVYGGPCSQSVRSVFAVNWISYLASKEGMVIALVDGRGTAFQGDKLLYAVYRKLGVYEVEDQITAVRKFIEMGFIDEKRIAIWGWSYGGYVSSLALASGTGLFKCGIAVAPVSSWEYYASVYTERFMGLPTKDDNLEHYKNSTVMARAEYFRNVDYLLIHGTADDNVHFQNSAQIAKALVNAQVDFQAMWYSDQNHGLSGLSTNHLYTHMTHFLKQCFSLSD

T3: human Fibroblast Activation Protein (FAP), expressed in transfected cells (human, UniProt Q12884 1-760)
T3 construct: whole, on cells; Used on transfected HT1080 / HEK293 cells (flow cytometry), as lysates of those cells coated on plates (ELISA) and as immunoprecipitate from their extracts; also called human FAP; huFAP
T3 sequence (looked up): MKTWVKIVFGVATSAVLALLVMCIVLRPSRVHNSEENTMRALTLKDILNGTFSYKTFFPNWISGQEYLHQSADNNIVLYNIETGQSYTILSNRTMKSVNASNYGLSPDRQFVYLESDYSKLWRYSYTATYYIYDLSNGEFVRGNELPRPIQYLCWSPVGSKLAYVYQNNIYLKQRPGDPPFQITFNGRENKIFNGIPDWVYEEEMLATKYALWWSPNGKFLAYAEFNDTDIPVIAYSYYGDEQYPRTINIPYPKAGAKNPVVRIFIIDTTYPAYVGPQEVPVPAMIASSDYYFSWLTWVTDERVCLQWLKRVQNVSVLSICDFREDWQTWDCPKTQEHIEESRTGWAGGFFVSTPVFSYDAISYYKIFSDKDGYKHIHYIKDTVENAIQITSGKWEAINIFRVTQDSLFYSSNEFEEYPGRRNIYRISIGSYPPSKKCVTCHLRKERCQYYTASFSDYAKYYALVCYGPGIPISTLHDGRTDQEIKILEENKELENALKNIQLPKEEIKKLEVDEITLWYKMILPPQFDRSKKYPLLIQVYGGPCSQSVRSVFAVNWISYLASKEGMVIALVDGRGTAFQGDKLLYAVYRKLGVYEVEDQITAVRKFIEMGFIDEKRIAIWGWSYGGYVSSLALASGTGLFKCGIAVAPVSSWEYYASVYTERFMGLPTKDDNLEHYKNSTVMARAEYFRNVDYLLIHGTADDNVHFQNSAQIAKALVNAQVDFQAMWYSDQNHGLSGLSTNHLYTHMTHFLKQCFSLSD

B1: Fab ESC11 (Fab, V domains shown)
VH: HVQLQESGPGLVKPSETLSLTCTVSGGSISSNNYYWGWIRQTPGKGLEWIGSIYYSGSTNYNPSLKSRVTISVDTSKNQFSLKLSSVTAADTAVYYCARGARWQARPATRIDGVAFDIWGQGTMVTVSS
VL: ETTLTQSPGTLSLSPGERATLSCRASQTVTRNYLAWYQQKPGQAPRLLMYGASNRAAGVPDRFSGSGSGTDFTLTISRLEPEDFAVYYCQQFGSPYTFGQGTKVEIK
notes: Fully human Fab from a non-immunized phage library, made in E. coli TG-1, with myc tag and His tag
B2: ESC11 IgG1 (antibody, V domains shown)
VH: B1 VH with H1Q
VL: B1 VL
notes: Variable domains cloned into a full human IgG1 format, made in NS0 cells; also called IgG1 antibody ESC11; ESC11 antibody
B3: Fab ESC14 (Fab, V domains shown)
VH: EVQLVQSGAEVKKPGASVKVSCKASGYTFTSYGISWVRQAPGQGLEWMGWISAYNGNTNYAQKLQGRVTMTTDTSTSTAYMELRSLRSDDTAVYYCARDWSRSGYYLPDYWGQGTLVTVSS
VL: DVVMTQSPLSLPVTLGQPASISCRSSQSLLHSNGYNYLDWYLQRPGQSPHLLIFLGSNRASGVPDRFSGSGSGTDFTLKISRVEAEDVGIYYCMQALQTPPTFGQGTKVEIK
notes: as for B1
B4: ESC14 IgG1 (antibody, V domains shown)
VH: B3 VH
VL: B3 VL
notes: Variable domains cloned into a full human IgG1 format, made in NS0 cells; also called IgG1 antibody ESC14; ESC14 antibody

Key:
[1] = molecular target: T1, murine Fibroblast Activation Protein …; test: serial dilutions of Fab on 293 muFAP+ cells
[2] = molecular target: T2, huFAP coated on a surface plasmon …; test: surface plasmon resonance, low-density huFAP coated chip
[3] = molecular target: T4, human dipeptidyl peptidase IV (DPPIV, CD26), expressed in HEK293 cells (human, UniProt P27487 1-766); test: ELISA on cell-lysate-coated plates (HEK293 huCD26+), Fig. 3
T4 construct: whole, on cells; Used as lysate of transfected HEK293 cells coated on plates (ELISA), on the cells (flow cytometry screening) and as immunoprecipitate; also called huCD26; HEK293 huCD26+

[4] = molecular target: T3, human Fibroblast Activation Protein …; test: binding to antigen expressing cell lines, apparent KD of bivalent IgG

T4 sequence (P27487 whole entry): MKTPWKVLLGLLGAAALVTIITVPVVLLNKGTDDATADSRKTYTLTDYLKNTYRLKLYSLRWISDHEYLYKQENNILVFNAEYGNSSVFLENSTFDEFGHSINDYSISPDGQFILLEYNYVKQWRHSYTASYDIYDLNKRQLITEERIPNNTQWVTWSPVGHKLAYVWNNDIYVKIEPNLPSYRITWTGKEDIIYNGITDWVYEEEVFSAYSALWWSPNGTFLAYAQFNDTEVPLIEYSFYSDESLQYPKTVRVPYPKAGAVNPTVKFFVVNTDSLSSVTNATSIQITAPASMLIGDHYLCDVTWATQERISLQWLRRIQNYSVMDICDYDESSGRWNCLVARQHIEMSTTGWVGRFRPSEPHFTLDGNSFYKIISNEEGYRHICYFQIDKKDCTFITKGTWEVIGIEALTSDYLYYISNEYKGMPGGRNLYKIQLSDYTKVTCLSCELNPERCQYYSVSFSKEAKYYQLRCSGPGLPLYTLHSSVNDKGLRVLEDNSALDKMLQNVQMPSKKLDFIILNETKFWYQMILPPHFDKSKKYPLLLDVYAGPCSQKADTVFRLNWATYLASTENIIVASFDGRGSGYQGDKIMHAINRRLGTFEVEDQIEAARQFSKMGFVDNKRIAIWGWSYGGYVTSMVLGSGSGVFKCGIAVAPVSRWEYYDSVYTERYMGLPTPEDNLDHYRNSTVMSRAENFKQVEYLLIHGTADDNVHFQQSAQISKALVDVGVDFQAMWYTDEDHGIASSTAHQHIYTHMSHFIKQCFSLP

Row | Binder | Kd [1] [nM] | Kd [2] [nM] | binding result [3] | Kd [4] [nM]
1 | B1 | 51 | 10 | no binding (tested: 100 nM) | –
2 | B2 | – | – | – | ~1
3 | B3 | 251 | 210 | no binding (tested: 100 nM) | –
4 | B4 | – | – | – | ~1
